Results on 6 molecules are retold here after patent US20150258194A1, “MODULATING TRANSENDOTHELIAL MIGRATION AND RECRUITMENT OF GRANULOCYTES BY MODULATING C-MET PATHWAY” (VIB VZW, priority 2012, published 2015).

One data set has as its system LLC cancer cells. Nature of the data set: Cytotoxicity assay: LLC cancer cell killing by neutrophils. In kind it is cell-based, mouse. Here is the method:
Cytotoxicity assay: LLC-shMet were transduced with a luciferase-expressing lentivirus (EXhLUC-Lvl 14 from GeneCopoeia); 104 LLC were seeded in DMEM 10% FBS in 96-multiwell. After 4 h, 0.2×10^6 neutrophils purified from the blood of LLC-tumor bearing mice or sorted from LLC-tumors were co-cultured with the LLC in DMEM 2% FBS for 4 hours at 37° C., with or without 100 ng/ml HGF or 1 mM L-NMMA (SIGMA). After washing, adherent cells were lysate in 0.2% Tryton 1 mM DTT.

Data set [1] concerns Met expression in neutrophils. Nature of the data set: Q-PCR / Western blot of Met expression in mouse neutrophils. In kind it is cell-based. The following applies: for upregulation of MET at RNA and protein levels: naïve mouse neutrophils. Here is the method: Western blot: 2×10^6 bone marrow neutrophils from WT mice were stimulated with TCM, CCM, 100 ng/ml of murine TNF-α (or mock medium 0% FBS or 10% FBS as control) for 20 hours at 37° C. For the co-culture with HUVEC, a monolayer of HUVEC was stimulated for 4 hours with 5 ng/ml IL-1 at 37° C., and washed before neutrophil seeding. After 20 hours of stimulation, neutrophils were collected using Cell Dissociation Buffer, Enzyme Free, PBS-Based (Gibco). Cells were washed in PBS, lysed in 15 μl of a protease inhibitor mixture and incubated for 15 minutes on ice. The stock solution was obtained by dissolving one tablet of Complete Mini protease inhibitor mixture (CI, Roche) in 5 ml of PBS with 2 mM diisopropyl fluorophosphate (DFP; Acros Organics, Morris Plains, N.J.). After addition of an equal amount of 2×SDS sample buffer supplemented with 4% 2-mercaptoethanol, the lysates were boiled for 15 minutes and kept at -80° C. until use. 30×10^6 neutrophils purified from healthy volunteer blood and stimulated with A549-CM, 100 ng/ml of human TNF-α, 50 ng/ml LPS (or mock medium 10% FBS as control) for 20 hours. Cells were incubated with DFP 2.7 mM for 15' at 4° C., collected and washed in PBS, DFP 2.7 mM, CI 1X, and lysed in hot […] buffer (25% SDS 10%, 25% Tris-HCl pH 6.8) at 96° C. for 10'. Cell lysates were sonicated, cleared and quantified. 6× loading buffer was added before loading on the gel. The following antibodies were used: mouse anti-mouse Met (clone 3D4; Invitrogen), mouse anti-mouse β-actin (Santa Cruz), rabbit anti-human Met (clone D1C2-XP; Cell Signaling), HRP-conjugated anti-beta-tubulin (Abcam). Signal was visualized by Enhanced Chemiluminescent Reagents (ECL, Invitrogen) or West Femto by Thermo Scientific according to the manufacturer's instructions. Quantitative RT-PCR: for mRNA analysis, 1×10^5 or 3×10^5 mouse or human neutrophils, respectively, were incubated in normoxic (21% oxygen) or hypoxic condition (1% oxygen) or stimulated with TCM (plus 50 μg/ml Enbrel or human IgG when indicated), CCM, A549-CM, 100 ng/ml of murine or human TNF-α, 50 ng/ml LPS, or mock medium in 96-multiwell for 4 hours at 37° C. 2×10^5 HUVEC were seeded in 24-multiwell coated with 0.1% gelatin and stimulated with 5 ng/ml IL-1 in DMEM 10% FBS for 4 hours at 37° C. Cells were washed in PBS, collected in RLT buffer (QIAGEN®) and kept at -80° C. RNA was extracted with an RNase Micro kit (QIAGEN®) according to manufacturer's instructions. Reverse transcription to cDNA was performed with the SuperScript III Reverse Transcriptase (Invitrogen) according to manufacturer's protocol. […]
(Immunoblotting shows a protein as a band on a membrane.)

In data set [2] the test system is MET expression in human neutrophils. Nature of the data set: Q-PCR / Western blot of MET expression in human neutrophils. Format: cell-based. The following applies: Enbrel. Here is the method: Western blot: 2×10^6 bone marrow neutrophils from WT mice were stimulated with TCM, CCM, 100 ng/ml of murine TNF-α (or mock medium 0% FBS or 10% FBS as control) for 20 hours at 37° C. For the co-culture with HUVEC, a monolayer of HUVEC was stimulated for 4 hours with 5 ng/ml IL-1 at 37° C., and washed before neutrophil seeding. After 20 hours of stimulation, neutrophils were collected using Cell Dissociation Buffer, Enzyme Free, PBS-Based (Gibco). Cells were washed in PBS, lysed in 15 μl of a protease inhibitor mixture and incubated for 15 minutes on ice. The stock solution was obtained by dissolving one tablet of Complete Mini protease inhibitor mixture (CI, Roche) in 5 ml of PBS with 2 mM diisopropyl fluorophosphate (DFP; Acros Organics, Morris Plains, N.J.). After addition of an equal amount of 2×SDS sample buffer supplemented with 4% 2-mercaptoethanol, the lysates were boiled for 15 minutes and kept at -80° C. until use. […] Cell lysates were sonicated, cleared and quantified. […] Quantitative RT-PCR: for mRNA analysis, 1×10^5 or 3×10^5 mouse or human neutrophils, respectively, were incubated in normoxic (21% oxygen) or hypoxic condition (1% oxygen) or stimulated with TCM (plus 50 μg/ml Enbrel or human IgG when indicated), CCM, A549-CM, 100 ng/ml of murine or human TNF-α, 50 ng/ml LPS, or mock medium in 96-multiwell for 4 hours at 37° C. […]

Data set [3] has as its target MET (c-Met, HGF receptor) on mouse neutrophils (mouse) (UniProt P16056). Nature of the data set: cell-based or functional assay.
The test system of a further data set is Ly6G+ cells. In words: Air pouch assay: neutrophil exudation into subcutaneous air pouches. In kind it is in vivo. The following applies: 200 ng/mouse, 4 hours; for recruitment of Ly6G+ cells into air pouch: WT→WT mice. Here is the method: Air Pouch Assay: to create subcutaneous air pouches, bone marrow transplanted WT and KO mice were injected with 3 ml of sterile air by dorsal subcutaneous injection with a butterfly 23G needle on day 0 and on day 3. On day 6, 200 ng/mouse of CXCL1 or murine HGF in 0.5 ml PBS-Heparin or PBS-Heparin as control, were injected in the dorsal camera created with the previous injection. After 4 hours, inflammatory cells were harvested by washing the pouch with 8 ml of PBS. Cells were stained with Ly6G-APC, washed and resuspended in PBS-BSA 0.1% with unlabeled counting beads and quantified with FACS Canto II (BD Bioscience).

In data set [4] the test system is neutrophils. In words: Adhesion assay: neutrophil adhesion to HUVEC. In kind it is cell-based, mouse. Here is the method: Adhesion Assay: 4×10^4 HUVEC were seeded in M199 20% FBS in 96-multiwell previously coated with 0.1% gelatin. After 12 h, HUVEC were stimulated with 5 ng/ml IL-1 in DMEM 10% FBS at 37° C. After 4 hours the endothelial monolayer was thoroughly washed and 2.5×105 WBC were seeded on top, with or without murine HGF (50 ng/ml). After 15′ non-adherent cells were washed out whereas adherent cells were detached by using Cell Dissociation Buffer, Enzyme Free, PBS-Based (Gibco). Cells were stained with Ly6G-APC, washed and resuspended in PBS-BSA 0.1% with unlabeled counting beads (BD Bioscience) and quantified with FACS Canto II (BD Bioscience).

The subject of data set [5] is neutrophils. In words: Transmigration and migration assay of neutrophils. Format: cell-based, mouse. Here is the method:
Transmigration and Migration Assay: For the transmigration assay, 2×10^5 HUVEC were seeded on 3 μm polycarbonate membrane (Transwell; Costar) previously coated with 0.1% gelatin in M199 20% FBS. After 12 h, HUVEC were stimulated for 4 hours at 37° C. in DMEM 10% FBS with 5 ng/ml IL-1 and then washed. 5×105 WBC were seeded on top of the endothelial monolayer, while mock medium (+/− decoy Met), TCM (+/− decoy Met) or 50 ng/ml murine HGF was added in the bottom. After 2 hours at 37° C., transmigrated cells were collected from the lower chambers and from the bottom part of the filter with cold PBS 0.5% EDTA. Cells were stained and Ly6G+ cells quantified as above. In the migration assays WBC were seeded directly on top of 3 μm polycarbonate porous membranes.

The test system of a further data set is β2-integrin. In words: Soluble ICAM-1 binding assay and co-immunoprecipitation of active β2-integrin. Format: cell-based.
The test system of data set [6] is neutrophils. In words: Nitric oxide measurement by FACS (DAF-FM) in neutrophils. In kind it is cell-based, mouse. The following applies: HGF 100 ng/ml. Here is the method: Nitric oxide measurement by FACS: neutrophils isolated from the blood of WT or KO LLC tumor bearing mice were co-cultured for 4 hours with LLC shMet, washed, and resuspended in PBSHepes 20 mM, incubated for 10′ with 5 μM DAF-FM diacetate (Molecular probes) in the absence or presence of HGF (100 ng/ml) at 37° C., washed and analyzed by FACS.

In the case of `CNC(=N)NCCC[C@H](N)C(=O)O` [L-NMMA, reference compound], the “HGF-induced cytotoxicity of neutrophils” value in the data set with LLC cancer cells (HGF 100 ng/ml plus 1 mM L-NMMA) is recorded as “decreased HGF-induced cytotoxicity to the level of Met KO neutrophils”. For the same molecule, the “cytotoxicity of intratumoral WT neutrophils against cancer cells” value with LLC cancer cells (neutrophils sorted from LLC tumors, 1 mM L-NMMA) is “decreased the cytotoxicity of WT neutrophils to the levels of KO neutrophils”.

Take TNF-a: the “upregulation of MET at RNA and protein levels” value in data set [1] is “able to upregulate MET”.

Consider Enbrel [reference compound], for which the “Met induction in mouse neutrophils stimulated with TCM” value in [1] (TCM, 50 μg/ml Enbrel) is “abolishment of Met induction”. Also, the “Met induction in neutrophils upon co-culture with activated ECs” value in data set [1] (mouse neutrophils, HUVEC (IL-1), TNF-a blockade) is “prevented Met induction”. Further, in data set [2], the “Met induction in human neutrophils stimulated with A549-CM” value is listed as “abolishment of Met induction”.

In data set [3], “Hepatocyte Growth Factor (HGF), murine (from UniProt Q08048 33-728) (ligand)” had an adhesion of neutrophils to an activated endothelium (HUVEC pre-stimulated with IL-1), FACS count of 48%.

B1: CXCL1: well-known neutrophil chemoattractant, positive control of neutrophil migration (protein, UniProt P12850 25-96, looked up)
Growth-regulated alpha protein: APIANELRCQCLQTMAGIHLKNIQSLKVLPSGPHCTQTEVIATLKNGREACLDPEAPLVQKIVQKMLKGVPK
For the molecule B1, in the data set on Ly6G+ cells, the “recruitment of neutrophils into air pouch in KO→WT mice” value is given as “did not change” and the “recruitment of Ly6G+ cells into air pouch” value is recorded as “equally good in recruiting Ly6G+ cells”.

B2: HGF: Hepatocyte Growth Factor, the ligand of the MET tyrosine kinase receptor (protein)
chain: QKKRRNTLHEFKKSAKTTLTKEDPLLKIKTKKVNSADECANRCIRNRGFTFTCKAFVFDKSRKRCYWYPFNSMSSGVKKGFGHEFDLYENKDYIRNCIIGKGGSYKGTVSITKSGIKCQPWNSMIPHEHSFLPSSYRGKDLQENYCRNPRGEEGGPWCFTSNPEVRYEVCDIPQCSEVECMTCNGESYRGPMDHTESGKTCQRWDQQTPHRHKFLPERYPDKGFDDNYCRNPDGKPRPWCYTLDPDTPWEYCAIKTCAHSAVNETDVPMETTECIQGQGEGYRGTSNTIWNGIPCQRWDSQYPHKHDITPENFKCKDLRENYCRNPDGAESPWCFTTDPNIRVGYCSQIPKCDVSSGQDCYRGNGKNYMGNLSKTRSGLTCSMWDKNMEDLHRHIFWEPDASKLNKNYCRNPDDDAHGPWCYTGNPLIPWDYCPISRCEGDTTPTIVNLDHPVISCAKTKQLRVVNGIPTQTTVGWMVSLKYRNKHICGGSLIKESWVLTARQCFPARNKDLKDYEAWLGIHDVHERGEEKRKQILNISQLVYGPEGSDLVLLKLARPAILDNFVSTIDLPSYGCTIPEKTTCSIYGWGYTGLINADGLLRVAHLYIMGNEKCSQHHQGKVTLNESELCAGAEKIGSGPCEGDYGGPLICEQHKMRMVLGVIVPGRGCAIPNRPGIFVRVAYYAKWIHKVILTYKL
Consider B2, for which the “adhesion of Met KO neutrophils to an activated endothelium” value in the data set with neutrophils [4] (Met KO neutrophils, HUVEC (IL-1)) is given as “did not modify the behavior of KO cells”. In addition, in the data set on neutrophils [4] (WT neutrophils, HUVEC (IL-1), HGF 50 ng/ml), the “increase of adhesion of WT neutrophils to an activated endothelium” value was found to be 48%. The “neutrophil adhesion to nonactivated ECs” value with neutrophils [4] (nonactivated ECs) was “not affected”. The “transendothelial migration of Met KO neutrophils” value in the data set with neutrophils [5] (Met KO neutrophils, inflamed-like endothelium) is given as “completely lost this response to HGF”. In the data set with neutrophils [5] (WT neutrophils, inflamed-like endothelium, HGF 50 ng/ml), the “transendothelial migration (chemotaxis) of WT neutrophils” value is “promoted their chemotaxis through an inflamed-like endothelium”. Moreover, the “migration of neutrophils through a naked porous membrane or a non-activated endothelium” value in the data set on neutrophils [5] (no activated endothelium) is listed as “did not influence the migration of neutrophils”. Further, in the data set on Ly6G+ cells, the “recruitment of neutrophils into air pouch in KO→WT mice” value is listed as “completely abolished” and the “recruitment of Ly6G+ cells into air pouch” value was “equally good in recruiting Ly6G+ cells”. Also, in data set [1], the “upregulation of MET at RNA and protein levels” value is recorded as “not”. In addition, in the data set with β2-integrin (soluble ICAM-1 binding assay), the “percentage of granulocytes bound to ICAM-1” value is given as “increases the percentage of granulocytes bound to ICAM-1”. For the same molecule, the “active β2-integrin (immunoprecipitation)” value in the data set on β2-integrin (upon HGF stimulation) is recorded as “more active Iβ2-integrin”. Besides, the “cytotoxicity of KO neutrophils” value with LLC cancer cells (Met KO circulating neutrophils with LLC, HGF 100 ng/ml) is “not”. In addition, in the data set on LLC cancer cells (WT circulating neutrophils with LLC, HGF 100 ng/ml), the “cytotoxicity of WT neutrophils” value is listed as “augmented”. In the data set on neutrophils [6] (Met KO circulating neutrophils with LLC), the “NO release of KO neutrophils” value is “not”. In addition, the “NO release of WT neutrophils” value in the data set with neutrophils [6] (WT circulating neutrophils with LLC) was “augmented”.
